Experimental data published in the supplement of paper PMC9170038.

System: MS2 coat protein
Test: apparent KD of MS2 coat protein; designed switch direction (-1 OFF switch, 1 ON switch): -1; higher = weaker reporter binding
Summary of the method: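 The buffer was Tris-HCl pH 7.5 with KCl, MgCl2, BSA, DTT, tRNA and Tween-20. In it, SNAP-549-labelled MS2 coat protein was titrated in doubling steps from 0.7 or 1.5 nM to 3 µM over chip-bound RNA switches transcribed by stalled E. coli RNA polymerase on Illumina chips. Apparent KD is the per-design median over clusters of curve fits to normalised fluorescence.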

[1] = input ligand: microRNA oligo, concentration not stated
[2] = Eterna round: R95, input ligand: microRNA oligo, concentration not stated

Row | Sequence | apparent KD of MS2 coat protein (input ligand: FMN 200 uM) | apparent KD of MS2 coat protein (input ligand: none) | apparent KD of MS2 coat protein [1] | apparent KD of MS2 coat protein [2] | apparent KD of MS2 coat protein (Eterna round: R95, input ligand: FMN 200 uM) | apparent KD of MS2 coat protein (Eterna round: R95, input ligand: none)
1 | GAGUUACAUGAGGAUCACCCAUGUGAGGAUAUGAGUCAGUCACGGUGACGUGGCUGACUCAGAAGGCACAAAGG [Mat - Exclusion 1 - JL Mod - D37] (Eterna round: R97, puzzle: Exclusion 1) | 186 nM | 83.8 nM |  |  |  | 
2 | CCGCAGCAAGGAUAUACUUGCGGUGGUGAACGAGGGCUUAUACUUGAGGAUCACCCAAGUAGAAGGUGCAAAAC [Mamaed] (Eterna round: R97, puzzle: Exclusion 2) | 33.9 nM | 22.4 nM |  |  |  | 
3 | ACAUGAGGAUCACCCAUGUCCGGCUGGUCUGUUCCGGUUGUCGAGGAUAUAGUUCGGUGUUCGCGCUAGAAGGCGGGAGCUGGA [Aenatbe mod 53] (Eterna round: R96, puzzle: Exclusion NG 3) | 177 nM | 157 nM | 130 nM |  |  | 
4 | ACAUGAGGAUCACCCAUGUACAGGGUUUAGUUUCAUCGUUUGAAGGAUAUACUCAGUUAGUUGUUGUAGAAGGUCACAUUUUGG [JR_ExcNG3_Sub004] (Eterna round: R96, puzzle: Exclusion NG 3) | 138 nM | 126 nM | 108 nM |  |  | 
5 | CCUUAUUCACAGGAUAUGCUCAUCUAAUGAUGAGCAGAAGGGUGGACAUGAGGAUCACCCAUGUUUAUCAAUGG [Omei Ex6 D5] (Eterna round: R97, puzzle: Exclusion 6) | 545 nM | 749 nM |  |  |  | 
6 | CUGGUGUGAGGAUAUCAAAGACCUCGGGAAAGAACCGAGAAUGAGAAGGCACAUGAGGAUCACCCAUGUAACAA [Enerteon] (puzzle: Exclusion 4) |  |  |  | 17.9 nM |  | 
7 | AUCGUGUGAGGAUAUCGAUGUUGGACGUCUAGGUCUGAGCGCGAGAAGGCACAUGAGGAUCACCCAUGUAAGGG [jl-ex4-4.24 ViennaUCT mod] (Eterna round: R97, puzzle: Exclusion 4) | 220 nM | 896 nM |  |  |  | 
8 | GAAUCGACAGGAUAUACAUGAGGAUCACCCAUGUAGUCAGAGAUGAUACCUCAACCUAGUAGAAGGGUCAGCGG [Eternabot (L2) Solution 17] (Eterna round: R97, puzzle: Exclusion 3) | 45.5 nM | 25 nM |  |  |  | 
9 | AGAUCACAUGAGGAUCACCCAUGUCAGGAUAUCGACUGAUCAGCUUCGGCUGAUCAGUCGAGAAGGGACAAUUA [E1/1-A2] (Eterna round: R97, puzzle: Exclusion 1) | 511 nM | 280 nM |  |  |  | 
10 | GCGGACAAGAUGGUGACAUCAGAGACAUGAGGAUCACCCAUGUAGGAUAUCGAUUCGAAACGAAUCGAGAAGGGCAUAGUCCGC [JL denovo 3] (Eterna round: R96, puzzle: Exclusion NG 3) | 460 nM | 224 nM | 190 nM |  |  | 
11 | CAUGAUUGACGAGGAUAUUGUUCUACAUGGCGACGAGAAGGCGUCUGUCACAUGAGGAUCACCCAUGUGAGUCUGGUGAAUGAG [Ex NG1 #83] (Eterna round: R96, puzzle: Exclusion NG 1) |  |  | 25.7 nM |  |  | 
12 | UCAAGUAUGUAGGAUAUGAUGUGAUUAUACAUAUCAGAAGGACGUACAUGAGGAUCACCCAUGUAACUUGCAUG [Exclusion 6 - B - 12:c] (puzzle: Exclusion 6) |  |  |  | 59.1 nM | 29.8 nM | 52.6 nM
13 | GGCGAAGUAGGAUAUACAUGAGGAUCACCCAUGUUACCUGAUGGCGUAGGUCUUCUAUGUAGAAGGGCUACGCC [jl-ex3-4.36 ViennaUCT mod] (Eterna round: R97, puzzle: Exclusion 3) | 16.9 nM | 16.9 nM |  |  |  | 
14 | ACUUGUGUUGAGGAUAUGCGCCGGCUCGCUGGCGCAGAAGGCGGCACAUGAGGAUCACCCAUGUCAGUUCGCGC [salish99_ex6_r004_001] (Eterna round: R97, puzzle: Exclusion 6) | 138 nM | 16.8 nM |  |  |  | 
